Assay [1] deals with RAD18/RAD6 complex (full-length, purified) (human) (UniProt Q9NS91). The assay is described as follows: mass photometry.
Assay [2] addresses His-tagged full length (FL) wildtype (WT) RAD18 (human) (UniProt Q9NS91). Put plainly: mass photometry.
The target is the same in assay [3]. Put plainly: AUC.
Assay [4] deals with RAD6 WT (N-terminal histidine tag, purified alone) (human) (UniProt P63146). The assay is described as follows: ITC. (In general: Isothermal titration calorimetry measures the heat released or taken up as one component is titrated into another.)
Chain of RAD6 WT (N-terminal histidine tag, purified alone) (human) (P63146 whole entry): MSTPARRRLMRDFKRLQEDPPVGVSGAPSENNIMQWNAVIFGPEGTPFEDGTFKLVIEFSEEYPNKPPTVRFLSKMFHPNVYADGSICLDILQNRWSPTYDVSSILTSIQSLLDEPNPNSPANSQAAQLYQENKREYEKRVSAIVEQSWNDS

Chain of His-tagged full length (FL) wildtype (WT) RAD18 (Q9NS91 whole entry): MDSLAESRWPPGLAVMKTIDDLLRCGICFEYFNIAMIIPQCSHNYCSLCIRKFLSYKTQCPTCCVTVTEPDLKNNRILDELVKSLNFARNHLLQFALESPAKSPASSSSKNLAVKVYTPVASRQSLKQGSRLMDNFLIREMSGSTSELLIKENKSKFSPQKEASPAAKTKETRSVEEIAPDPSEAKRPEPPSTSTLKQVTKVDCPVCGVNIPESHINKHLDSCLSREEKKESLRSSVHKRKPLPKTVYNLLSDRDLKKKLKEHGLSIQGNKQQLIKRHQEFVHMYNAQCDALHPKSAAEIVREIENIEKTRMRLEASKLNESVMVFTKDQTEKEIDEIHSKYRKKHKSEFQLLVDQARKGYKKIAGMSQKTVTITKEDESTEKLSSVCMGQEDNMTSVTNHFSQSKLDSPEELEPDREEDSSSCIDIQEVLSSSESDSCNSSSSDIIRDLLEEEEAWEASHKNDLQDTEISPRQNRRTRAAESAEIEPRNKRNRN
Chain of His-tagged full length (FL) wildtype (WT) RAD18 (human) (Q9NS91 whole entry): as above
Chain of RAD6 of the purified RAD18/RAD6 complex (P63146 whole entry, one chain of several): as the sequence (P63146 whole entry) above
Chain of RAD18/RAD6 complex (full-length, purified) (human) (Q9NS91 whole entry, chain 1 of 2): as the sequence (Q9NS91 whole entry) above
Chain of RAD18/RAD6 complex (full-length, purified) (human) (P63146 whole entry, chain 2 of 2, further chain): as the sequence (P63146 whole entry) above
Chain of Full length MAGEA4 WT (N-terminal histidine tag) (P43358 whole entry): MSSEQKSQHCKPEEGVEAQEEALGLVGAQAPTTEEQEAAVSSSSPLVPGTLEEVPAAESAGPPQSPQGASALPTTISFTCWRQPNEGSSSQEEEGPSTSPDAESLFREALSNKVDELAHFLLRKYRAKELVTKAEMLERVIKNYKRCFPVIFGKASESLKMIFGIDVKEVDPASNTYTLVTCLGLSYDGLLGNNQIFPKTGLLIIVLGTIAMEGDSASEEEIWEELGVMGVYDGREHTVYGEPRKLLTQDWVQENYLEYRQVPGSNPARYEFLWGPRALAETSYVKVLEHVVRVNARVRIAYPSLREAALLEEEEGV

As a reminder, the stoichiometry N is a count of units in the complex or per binding partner. As to “Full length MAGEA4 WT (N-terminal histidine tag) (from UniProt P43358 1-317) (natural protein)”, the stoichiometry N in assay [1] turned out to be 1. As to “His-tagged full length (FL) wildtype (WT) RAD18 (from UniProt Q9NS91 1-495) (enzyme)”, the stoichiometry N in assay [2] and in assay [3] was 2 in each case.

Turning to “RAD6 of the purified RAD18/RAD6 complex (from UniProt P63146 1-152) (enzyme)”, the stoichiometry N (RAD6 per RAD18) in assay [2] and in assay [3] was 0.5 throughout.

In general, Kd refers to the equilibrium constant for the complex coming apart. For the substance “RAD18 R6BD peptide (27 amino acid peptide containing amino acids 340-366 of RAD18) (from UniProt Q9NS91 340-366)”, the Kd in assay [4] stood at 25.3 µM.

(Values after publication doi:10.1101/2023.12.08.570772.)
